Data on one substance can be found in US5780265A, “Kunitz type plasma kallikrein inhibitors” (Genentech, Inc., priority 1995, dated 1998).

Holding throughout (type): biochemical
For experiment [1], the target named is T1, Factor XIa (Homo sapiens, UniProt P03951).
T1 construct: purchased Haematologic Technologies Inc. (Essex Jct., Vt.)
The experiment is described as follows: Apparent equilibrium dissociation constant (Ki*) with FXIa. Conditions: at least 3 independent measurements.
Method: (§3) Serine proteases (1 to 20 nM) were assayed in the presence of 100 nM inhibitor. […] The degree to which FXIa was inhibited by selected inhibitors including the consensus mutants was further investigated by measuring the Ki *.

Experiment [2] has as its target T2, plasma kallikrein (Homo sapiens, UniProt P03952).
T2 construct: Human plasma kallikrein and Factor XIIa were purchased; purchased Enzyme Research Laboratories, Inc. (South Bend, Ind.)
Nature of the experiment: Specificity assay, plasma kallikrein. Conditions: 100 nM inhibitor; plasma kallikrein 3.5 nM, 0.7 mM S2302; 2 h room temperature.
Method: (§4) Aliquots (30 μL) of various inhibitors diluted to 500 nM were incubated with each protease (100 μL) in the appropriate buffer. After incubation of the substrate/inhibitor mixes at room temperature for 2 h, the appropriate substrate (20 μL) was added, and the absorbance at 405 nm was monitored. […] The FXIa assay also contained 1 mg/mL BSA. The concentration of FXIa throughout refers to the concentration of active sites. For this experiment, the concentrations of thrombin, TF-FVIIa, FXa, FXIa, FXIIa, and plasmin are approximate and are determined based upon the manufacturers' specifications.
as §3

Experiment [3] addresses T1, Factor XIa. The experiment is described as follows: Specificity assay, Factor XIa. Conditions: 100 nM inhibitor; FXIa […], 0.7 mM S2366, 1 mg/mL BSA.
Method: as §4, §3
Experiment [4] deals with T3, TF-FVIIa (tissue factor-Factor VIIa) (Homo sapiens, UniProt P08709).
T3 construct: purchased Haematologic Technologies Inc. (FVIIa); TF made in house; host or cells: E. coli (TF 1-243)
Nature of the experiment: Specificity assay, TF-FVIIa. Conditions: 100 nM inhibitor; TF 77 nM-FVIIa 14 nM, 0.7 mM S2366.
Method: as §4, §3

The test system of experiment [5] is intrinsic coagulation pathway. Nature of the experiment: Activated partial thromboplastin time (APTT) clotting assay in normal human plasma. Conditions: 1 μM inhibitor. How it is done:
(§1) FIG. 5A and FIG. 5B. […] The uninhibited clotting times were 33.6 sec and 14 sec for the APTT and PT, respectively
(§2) Clotting times for normal human plasma were performed using an MLA Electra 800 Coagulometer (Medical Laboratory Automation, Inc. Pleasantville, N.Y.) and Dade reagents (Baxter Health Care Corp., Miami Fla.). The clotting time was determined by optical assessment.
For the activated partial thromboplastin time (APTT) assays, the activation time was set at 120 sec and acquisition time at 300 to 600 sec depending on the expected outcome of the assay. Citrated normal human plasma and inhibitor were incubated together. The sample (plasma and inhibitor) and activator (Actin FS) were automatically pipetted and incubated is together for 2 min at 37° C., then CaCl2 was added and clotting time determined by means of optical assessment. The total incubation time of inhibitor with plasma was ca. 3 min before addition of activator, and 5 min before addition of CaCl2.

Experiment [6] relates to extrinsic coagulation pathway. The experiment is described as follows: Prothrombin time (PT) clotting assay, tissue factor initiated. Conditions: normal human plasma, TF initiated. As for the experimental part:
as §1, §2

T1 sequence (P03951 388-625 limits assumed): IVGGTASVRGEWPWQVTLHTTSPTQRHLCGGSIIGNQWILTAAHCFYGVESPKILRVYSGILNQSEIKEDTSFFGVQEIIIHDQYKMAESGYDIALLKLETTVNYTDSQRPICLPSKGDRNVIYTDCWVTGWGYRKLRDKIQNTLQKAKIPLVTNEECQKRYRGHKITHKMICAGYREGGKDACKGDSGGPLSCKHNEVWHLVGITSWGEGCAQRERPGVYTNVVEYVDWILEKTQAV
T1 sequence (P03951 19-387 limits assumed): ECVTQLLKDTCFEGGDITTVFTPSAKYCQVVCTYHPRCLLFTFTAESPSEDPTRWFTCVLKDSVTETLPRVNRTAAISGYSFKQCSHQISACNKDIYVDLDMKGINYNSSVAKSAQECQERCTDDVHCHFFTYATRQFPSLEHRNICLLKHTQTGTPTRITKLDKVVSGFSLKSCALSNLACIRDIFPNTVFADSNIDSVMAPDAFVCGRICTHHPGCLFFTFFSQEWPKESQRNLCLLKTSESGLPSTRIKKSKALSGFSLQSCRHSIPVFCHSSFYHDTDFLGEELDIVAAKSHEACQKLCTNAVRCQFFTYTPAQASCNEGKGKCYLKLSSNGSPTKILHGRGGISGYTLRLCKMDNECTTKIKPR
T2 sequence (P03952 391-638 limits assumed): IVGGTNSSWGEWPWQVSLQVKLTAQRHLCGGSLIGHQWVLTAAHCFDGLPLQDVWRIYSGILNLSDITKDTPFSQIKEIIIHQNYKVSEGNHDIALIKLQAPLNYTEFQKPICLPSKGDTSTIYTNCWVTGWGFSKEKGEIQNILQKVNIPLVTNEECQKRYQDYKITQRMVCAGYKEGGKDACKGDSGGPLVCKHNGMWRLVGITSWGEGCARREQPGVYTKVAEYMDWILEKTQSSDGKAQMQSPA
T2 sequence (P03952 20-390 limits assumed): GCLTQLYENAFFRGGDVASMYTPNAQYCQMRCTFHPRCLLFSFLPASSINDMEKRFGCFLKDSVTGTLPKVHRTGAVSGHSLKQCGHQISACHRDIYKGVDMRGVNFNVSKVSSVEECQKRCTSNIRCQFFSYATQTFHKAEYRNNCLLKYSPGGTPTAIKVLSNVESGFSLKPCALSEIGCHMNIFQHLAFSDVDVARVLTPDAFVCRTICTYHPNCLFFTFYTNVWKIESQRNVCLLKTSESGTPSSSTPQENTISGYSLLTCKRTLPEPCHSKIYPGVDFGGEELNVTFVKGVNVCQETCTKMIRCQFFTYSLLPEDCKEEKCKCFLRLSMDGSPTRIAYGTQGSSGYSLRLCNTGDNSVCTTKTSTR
T3 sequence (P08709 213-466 limits assumed): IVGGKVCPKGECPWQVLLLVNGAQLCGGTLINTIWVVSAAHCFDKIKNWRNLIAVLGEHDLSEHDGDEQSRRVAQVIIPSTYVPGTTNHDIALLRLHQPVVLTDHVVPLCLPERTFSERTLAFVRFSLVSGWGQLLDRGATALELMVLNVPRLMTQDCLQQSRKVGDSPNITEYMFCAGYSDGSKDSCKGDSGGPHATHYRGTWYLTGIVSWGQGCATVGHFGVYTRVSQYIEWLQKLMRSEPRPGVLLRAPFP
T3 sequence (P08709 61-212 limits assumed): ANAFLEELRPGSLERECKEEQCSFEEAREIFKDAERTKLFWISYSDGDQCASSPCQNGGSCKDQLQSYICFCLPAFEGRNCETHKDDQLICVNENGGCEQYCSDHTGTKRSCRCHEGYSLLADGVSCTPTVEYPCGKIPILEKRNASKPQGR
T3 sequence (P13726 33-275 partner limits assumed): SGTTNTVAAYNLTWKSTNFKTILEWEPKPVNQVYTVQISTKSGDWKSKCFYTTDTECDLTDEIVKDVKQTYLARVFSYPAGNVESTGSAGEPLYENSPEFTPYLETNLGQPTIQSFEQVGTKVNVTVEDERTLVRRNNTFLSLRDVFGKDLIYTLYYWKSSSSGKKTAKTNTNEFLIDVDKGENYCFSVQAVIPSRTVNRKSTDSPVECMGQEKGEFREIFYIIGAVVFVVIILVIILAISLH

In the case of “APPI: 58 amino acid Kunitz domain from human Alzheimer's disease amyloid β-protein precursor, residues 287-344; here Met52 replaced with Ala [reference compound]”, the Ki in experiment [1] was 2.7 ± 1.4 nM. In addition, the “fraction of remaining proteolytic activity, plasma kallikrein” value in experiment [2] worked out at 0.81. For the same substance, the “fraction of remaining proteolytic activity, Factor XIa” value in experiment [3] was 0.03. In addition, the “fraction of remaining proteolytic activity, TF · Factor VIIa” value in experiment [4] is 0.60. Further, the “fold prolongation of clotting time, APTT” value in experiment [5] was determined as 2.8 fold. Besides, in experiment [6], the “prolongation of clotting time in PT assay (in words)” value is “neither KALI-DY, BPTI, nor APPI appreciably prolonged”.
